# Laboratory results from the supplement of paper PMC7125110.
# ± gives the standard error. For some of these results: Fewer inactive variants are shown than the library holds.
# B1: glmS ribozyme (parent)
# chain: AUAAAAGCGCCAGAACUACAGAAAUGUAGUUGACGAGGAGGAGGUUUAUCGAAUUUUCGGCGGAUGCCUCCAAA
# Experiments:
# Conditions in all cases: with glucosamine-6-phosphate
# glucosamine-6-phosphate [1] = variants of: B1; assay: kcat; higher = faster cleavage; RNA array
# Method in brief: (§1)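 Glucosamine-6-phosphate (40 μM to 10 mM) in HEPES/KCl/Mg(OAc)2 buffer was flowed over sequenced MiSeq chips, and tiles were imaged over ~14 h. Barcoded ribozyme variants there had been transcribed in situ by E. coli RNA polymerase and were tracked through a hybridised Cy3 probe at 37 °C. One- or two-exponential decay fits to per-tile medians, normalised to baseline and to non-cleaving reference variants, gave kobs. kcat and KM came from weighted Michaelis–Menten fits across concentrations.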
# glucosamine-6-phosphate [2] = variants of: B1; assay: self-cleavage kobs at 640 uM GlcN6P; higher = faster cleavage; RNA array
# Method in brief: as §1
# glucosamine-6-phosphate [3] = variants of: B1; assay: self-cleavage kobs at 40 uM GlcN6P; higher = faster cleavage; RNA array
# Method in brief: as §1
# glucosamine-6-phosphate [4] = variants of: B1; assay: self-cleavage kobs at 160 uM GlcN6P; higher = faster cleavage; RNA array
# Method in brief: as §1
# glucosamine-6-phosphate [5] = variants of: B1; assay: self-cleavage kobs at 2500 uM GlcN6P; higher = faster cleavage; RNA array
# Method in brief: as §1
# glucosamine-6-phosphate [6] = variants of: B1; assay: self-cleavage kobs at 10000 uM GlcN6P; higher = faster cleavage; RNA array
# Method in brief: as §1
# glucosamine-6-phosphate [7] = variants of: B1; assay: KM; higher = weaker cofactor use; RNA array
# Method in brief: as §1
Variant,kcat (glucosamine-6-phosphate [1]) [s⁻¹],self-cleavage kobs at 640 uM GlcN6P (glucosamine-6-phosphate [2]) [s⁻¹],self-cleavage kobs at 40 uM GlcN6P (glucosamine-6-phosphate [3]) [s⁻¹],self-cleavage kobs at 160 uM GlcN6P (glucosamine-6-phosphate [4]) [s⁻¹],self-cleavage kobs at 2500 uM GlcN6P (glucosamine-6-phosphate [5]) [s⁻¹],self-cleavage kobs at 10000 uM GlcN6P (glucosamine-6-phosphate [6]) [s⁻¹],KM (glucosamine-6-phosphate [7]) [µM]
G37U U46G,< 1e-05,< 1e-05,,,,,
A42G U47G,0.00929 ± 0.0033,0.0029 ± 0.00064,0.000293 ± 6.2e-05,0.00105 ± 0.00032,0.0046 ± 0.001,0.0143 ± 0.0028,
A36U G59A G63U C71U,< 1e-05,,,,< 1e-05,,
G40C G63C,< 1e-05,,,< 1e-05,< 1e-05,,
A39C U57G,< 1e-05,,,< 1e-05,,,
G35U U54G C70A,1.53e-05 ± 4.8e-06,,,,< 1e-05,,
G37C A53U U69G,3.72e-05 ± 1.7e-05,3.81e-05 ± 1.9e-05,,,6.4e-05 ± 2.4e-05,,
A42G A48C,0.00074 ± 0.00011,9.68e-05 ± 2.1e-05,,,0.000276 ± 8.7e-05,0.000506 ± 7.8e-05,4500 ± 1200
A39U U56G,0.0257 ± 0.011,0.0021 ± 0.00031,0.000177 ± 2.7e-05,0.000402 ± 8.7e-05,0.00893 ± 0.0013,0.0139 ± 0.0021,
A39U U56C,0.00176 ± 0.00058,0.000351 ± 5.4e-05,3.9e-05 ± 8.2e-06,0.000149 ± 2.8e-05,0.000804 ± 0.00019,0.00192 ± 0.0004,2130 ± 950
G40C U55C,0.000721 ± 0.00014,0.00012 ± 3.6e-05,,2.05e-05 ± 5.9e-06,0.000287 ± 8.2e-05,0.000483 ± 7.8e-05,4590 ± 1400
G40A G41U,7.26e-05 ± 2.3e-06,2.54e-05 ± 8.5e-06,,,5.29e-05 ± 1.9e-05,6.43e-05 ± 1.3e-05,1160 ± 110
G37C G60A C68U,1.98e-05 ± 7.3e-06,,,,,,
G35U C67G,1.19e-05 ± 2.3e-06,,,,< 1e-05,,
A39C U54A,0.00479 ± 0.0015,0.00157 ± 0.00028,0.000143 ± 4.1e-05,0.000483 ± 0.00013,0.00219 ± 0.00068,0.00615 ± 0.0015,1410 ± 630
A39C U54C,0.00666 ± 0.0019,0.00125 ± 0.0003,0.000105 ± 2.5e-05,,0.00481 ± 0.00084,0.00475 ± 0.00095,2400 ± 1100
A39C A48G U55C,6.53e-05 ± 4.8e-06,,< 1e-05,,,2.91e-05 ± 1.2e-05,
G41U A53C,0.000167 ± 4e-05,5.64e-05 ± 1.2e-05,< 1e-05,,7.23e-05 ± 9.5e-06,0.000139 ± 1.2e-05,
